Assay: Delivery of cisPt&IgG1&Ins-GNPs into mice brain, Au and Pt measured by ICP-OES
Type: in vivo, Male BALB/c mice
Details: 8 hours after IV injection, after perfusion
Protocol: Male BALB/c mice were divided into four treatment groups: • Group 1: Anti-IgG1 & insulin-conjugated GNPs (IgG1&Ins-GNPs; n=2) • Group 2: Cisplatin & insulin-conjugated GNPs (CisPt&Ins-GNPs; n=2) • Group 3: Multifuctional GNPs (cisPt&IgG1&Ins-GNPs; n=2) • Group 4: Free cisplatin (n=2)
Mice were injected intravenously with IgG1&Ins-GNPs (200 μl, 25 mg/ml), cisPt&Ins-GNPs (200 μl of 25 mg/ml), cisPt&IgG1&Ins-GNPs (200 μl of 25 mg/ml), or with equivalent amounts of free cisplatin. Eight hours post injection, mice underwent perfusion to remove all the particles residing within the blood vessels. Then, mice brains were extracted and analyzed using ICP-OES to measure the amounts of Au and Pt that penetrated into the brain (FIGS. 6A and 6B, respectively).

cisPt&Ins-GNPs: GNPs conjugated with insulin and cisplatin; control particle
amount of Pt within the brain compared with equivalent dose of free cisplatin: significantly higher

Source: patent publication US20240293561A1, “BRAIN PERMEABLE MULTIFUNCTIONAL SYSTEM AND USES THEREOF” (NANOCARRY THERAPEUTICS LTD., priority 2021, published 2024)
